Laboratory results from patent US20020035736A1.

Tests used:
[1] = target: native human HER2 (human) (UniProt P04626); test: cell-based or functional assay
[2] = target: native human HER2 (human) (UniProt P04626); test: inhibition of 125I-rHRGβ1 binding to MCF7 monolayers on ice; labeled ligand rHRGβ1

| HRG stimulation of p180 tyrosine phosphorylation in MCF7 cells [1] | maximum inhibition of HRG binding [2] [%] | inhibition of cell proliferation of SK-BR-3 cells (crystal violet) [1] [%] | Substance |
| --- | --- | --- | --- |
| < 25 % of control | 74 | – | murine monoclonal antibody 2C4 |
| – | – | 66 | murine monoclonal antibody 4D5 |
